From PMC6773726, “The ubiquitin-like modifier FAT10 interferes with SUMO activation” (Nature Communications, 2019)

T1: AOS1/UBA2, heterodimeric SUMO E1 activating enzyme, recombinant (human, UniProt Q9UBE0 1-346; Q9UBT2 1-640)
T1 construct: expressed from pET11d-UBA2; The N-terminal end of the His tag follows from the printed offset of +23 aa; also called SAE1/SAE2; not shown: 6His, N-terminal, kept
T1 sequence (looked up) 1: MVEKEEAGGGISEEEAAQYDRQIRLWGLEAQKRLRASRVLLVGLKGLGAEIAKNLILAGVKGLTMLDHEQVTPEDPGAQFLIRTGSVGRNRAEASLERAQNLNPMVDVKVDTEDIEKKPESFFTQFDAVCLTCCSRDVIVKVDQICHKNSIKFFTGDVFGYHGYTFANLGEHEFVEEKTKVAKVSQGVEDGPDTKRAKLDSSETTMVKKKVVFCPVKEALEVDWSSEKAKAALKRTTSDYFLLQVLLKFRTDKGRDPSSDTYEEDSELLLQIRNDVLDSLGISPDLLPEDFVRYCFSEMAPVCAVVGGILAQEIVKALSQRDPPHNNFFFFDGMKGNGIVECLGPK
T1 sequence (looked up) 2: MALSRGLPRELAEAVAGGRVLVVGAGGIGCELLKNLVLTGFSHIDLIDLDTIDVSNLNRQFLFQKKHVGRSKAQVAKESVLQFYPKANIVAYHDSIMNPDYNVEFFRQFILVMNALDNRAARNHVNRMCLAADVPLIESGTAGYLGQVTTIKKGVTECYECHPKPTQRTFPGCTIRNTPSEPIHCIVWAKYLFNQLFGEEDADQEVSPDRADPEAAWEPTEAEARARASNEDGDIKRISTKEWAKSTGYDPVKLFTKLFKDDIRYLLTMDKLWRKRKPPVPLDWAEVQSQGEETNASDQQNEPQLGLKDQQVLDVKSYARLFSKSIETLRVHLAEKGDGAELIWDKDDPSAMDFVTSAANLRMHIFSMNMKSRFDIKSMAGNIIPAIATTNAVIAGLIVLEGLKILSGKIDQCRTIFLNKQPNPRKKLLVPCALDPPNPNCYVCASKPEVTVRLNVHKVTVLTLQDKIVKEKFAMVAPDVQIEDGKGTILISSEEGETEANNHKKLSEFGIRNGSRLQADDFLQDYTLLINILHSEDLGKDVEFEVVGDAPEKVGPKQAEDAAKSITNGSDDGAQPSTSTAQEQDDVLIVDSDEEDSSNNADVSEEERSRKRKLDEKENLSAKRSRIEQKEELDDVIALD


Assays:
[1] = biological target: T1, AOS1/UBA2, heterodimeric SUMO E1 …; test: BLI; Octet (Forte Bio); sensors loaded with 0.1 mg/ml AOS1/UBA2; GST-FAT10 at 0.5, 0.25, 0.1 and 0.05 mg/ml measured versus GST; buffer TNT (50 mM Tris HCl pH 7.6, 100 mM NaCl, 0.1% Triton X-100); association 600 s, dissociation 600 s; details: both partners purified
[2] = biological target: T1, AOS1/UBA2, heterodimeric SUMO E1 …; test: co-IP; recombinant proteins: 25 nM AOS1/UBA2 with 0.7 uM of each FAT10 variant in in vitro buffer without ATP; FAT10 precipitated with the antibody 4F1 on protein A sepharose, 3 h at 8 °C; blots for the E1 subunits; details: both partners purified

| Kd [1] [nM] | binding result [2] | Binder |
| --- | --- | --- |
| 1800 | – | GST-FAT10 (natural protein, human, UniProt O15205 1-165, looked up, FAT10 (ubiquitin D, UBD), human; also called FAT10 (in the sentence that gives the Kd); source: E. coli BL21(DE3) (pGEX4T-3-FAT10), purified (glutathione agarose, PD-10 desalting)) MAPNASCLCVHVRSEEWDLMTFDANPYDSVKKIKEHVRSKTKVPVQDQVLLLGSKILKPRRSLSSYGIDKEKTIHLTLKVVKPSDEELPLFLVESGDEAKRHLLQVRRSSSVAQVKAMIETKTGIIPETQIVTCNGKRLEDGKMMADYGIRKGNLLFLACYCIGG |
| – | binds | FAT10, recombinant, untagged (natural protein, human, UniProt O15205 2-165, looked up, FAT10 (ubiquitin D, UBD), human; also called wild-type FAT10; source: E. coli BL21(DE3) (pSUMO-FAT10), purified (HisTrap, tag removal with ULP-1, cation exchange)) APNASCLCVHVRSEEWDLMTFDANPYDSVKKIKEHVRSKTKVPVQDQVLLLGSKILKPRRSLSSYGIDKEKTIHLTLKVVKPSDEELPLFLVESGDEAKRHLLQVRRSSSVAQVKAMIETKTGIIPETQIVTCNGKRLEDGKMMADYGIRKGNLLFLACYCIGG |
| – | binds | FAT10-AV, recombinant, untagged (natural protein, human, UniProt O15205 2-165, looked up, FAT10 (ubiquitin D, UBD), human, C-terminal diglycine motif changed from GG to AV; also called FAT10 diglycine mutant FAT10-AV; source: E. coli BL21(DE3) (pSUMO-FAT10-AV), purified (HisTrap, tag removal with ULP-1, cation exchange)) APNASCLCVHVRSEEWDLMTFDANPYDSVKKIKEHVRSKTKVPVQDQVLLLGSKILKPRRSLSSYGIDKEKTIHLTLKVVKPSDEELPLFLVESGDEAKRHLLQVRRSSSVAQVKAMIETKTGIIPETQIVTCNGKRLEDGKMMADYGIRKGNLLFLACYCIAV |
